Literature values, collected in US20260091141A1, “GENE EDITING METHODS, SYSTEMS, AND COMPOSITIONS FOR TREATING SPINAL MUSCULAR ATROPHY” (The Broad Institute, Inc., priority 2023, published 2026).

Tested on: DNA
Details: SpCas9 mutation relative to SEQ ID NO: 209; UniProtKB Q99ZW2 entry

B1: 175-307 deletion: SpCas9 mutation relative to SEQ ID NO: 209 (protein)
chain: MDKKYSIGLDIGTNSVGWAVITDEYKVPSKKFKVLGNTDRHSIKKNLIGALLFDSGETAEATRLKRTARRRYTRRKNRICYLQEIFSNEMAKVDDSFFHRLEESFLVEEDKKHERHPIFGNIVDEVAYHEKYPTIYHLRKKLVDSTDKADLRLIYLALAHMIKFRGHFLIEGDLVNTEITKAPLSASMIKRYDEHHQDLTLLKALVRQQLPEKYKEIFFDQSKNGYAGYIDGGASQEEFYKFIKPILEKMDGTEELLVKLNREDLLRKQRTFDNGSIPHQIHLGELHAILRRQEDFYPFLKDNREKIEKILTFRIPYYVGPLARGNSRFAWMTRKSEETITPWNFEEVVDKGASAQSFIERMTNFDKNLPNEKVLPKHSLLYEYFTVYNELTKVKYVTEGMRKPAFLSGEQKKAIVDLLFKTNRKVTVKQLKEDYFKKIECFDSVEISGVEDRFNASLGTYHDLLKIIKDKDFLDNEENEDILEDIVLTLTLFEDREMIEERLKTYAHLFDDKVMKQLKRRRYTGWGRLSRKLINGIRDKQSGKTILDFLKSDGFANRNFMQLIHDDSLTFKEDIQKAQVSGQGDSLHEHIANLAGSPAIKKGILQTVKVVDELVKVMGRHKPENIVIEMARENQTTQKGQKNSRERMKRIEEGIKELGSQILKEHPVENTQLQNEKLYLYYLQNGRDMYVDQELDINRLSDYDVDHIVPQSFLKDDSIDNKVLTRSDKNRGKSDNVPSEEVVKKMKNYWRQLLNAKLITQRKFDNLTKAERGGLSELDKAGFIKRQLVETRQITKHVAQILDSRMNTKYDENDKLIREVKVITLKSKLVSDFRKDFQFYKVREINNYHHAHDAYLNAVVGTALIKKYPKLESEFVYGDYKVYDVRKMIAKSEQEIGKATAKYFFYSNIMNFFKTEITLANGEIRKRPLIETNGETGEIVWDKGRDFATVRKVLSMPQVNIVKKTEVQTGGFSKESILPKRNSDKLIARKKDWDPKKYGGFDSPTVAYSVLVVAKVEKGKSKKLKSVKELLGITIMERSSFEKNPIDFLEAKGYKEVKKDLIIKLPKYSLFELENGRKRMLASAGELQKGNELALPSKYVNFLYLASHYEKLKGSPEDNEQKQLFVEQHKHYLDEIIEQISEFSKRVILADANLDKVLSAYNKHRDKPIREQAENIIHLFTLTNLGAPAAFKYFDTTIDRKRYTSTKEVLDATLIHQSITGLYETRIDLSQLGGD
modifications: serotype M1; Streptococcus pyogenes
  Function/Characteristic (as reported): About 50% decreased DNA cleavage
